One may read the Km as the concentration of substrate that gives half-maximal velocity. Usually kcat stands for the maximal rate divided by the concentration of active sites.

Numbering of substitutions follows the chain as printed. Numbers in names are those of the source.

Substrate in data set [1]: N[C@@H](CS)C(=O)O
Nature of the data set: HPLC of CSA product (OPA derivatised). The data set is classed as biochemical, Paralichthys olivaceus. The conditions noted are these: MES 62.5 mM (pH 6.1 given for tissue buffer), 0.3 mM ferrous sulfate, 62.5 μM bathocuproine disulfonate, O2 (air), 37 °C, fit at 0–4 mM, substrate inhibition above 4 mM.

Substrate in data set [2]: N[C@@H](CS(=O)O)C(=O)O
Nature of the data set: HPLC of hypotaurine product (OPA derivatised). The data set is classed as biochemical, Paralichthys olivaceus. The conditions noted are these: 100 mM NaH2PO4, 10 μM PLP, 37 °C, 10 min, CSA 0–15 mM, pH not given for assay (enzyme buffer pH 7.4).

Substrate in data set [3]: N[C@@H](CS(=O)O)C(=O)O
Nature of the data set: HPLC of hypotaurine product (OPA derivatised). It counts as biochemical, Oncorhynchus mykiss. The conditions noted are these: 100 mM NaH2PO4, 10 μM PLP, 37 °C, 10 min, CSA 0–15 mM, pH not given for assay (enzyme buffer pH 7.4).

Substrate in data set [4]: N[C@@H](CS)C(=O)O
Nature of the data set: HPLC of CSA product (OPA derivatised). The data set is classed as biochemical, Oncorhynchus mykiss. The settings on record: MES 62.5 mM (pH 6.1 given for tissue buffer), 0.3 mM ferrous sulfate, 62.5 μM bathocuproine disulfonate, O2 (air), 37 °C, fit at 0–4 mM, substrate inhibition above 4 mM.

B1: Japanese flounder CDO (Paralichthys olivaceus) (protein)
chain: MEHTELLKPETLDELIKTLHDIFDSDCINVEEVQGVMESYESKPQEWMKYAKFDQYRYTRNLVDEGNGKFNLMILCWGEGHGSSIHDHTDSHCFMKLLQGQLKETLFEWPDCQSHGDMVQRSQRILQENKVAYINDSLGLHRVENVSHTECAVSLHLYSPPFQACQTFDQRTGHRNTVKMTFWSKYGERTPFETTVSQENN
notes: full-length ORF (201 aa printed, ORF 603 bp), N-terminal 6xHis tag, pET-28a, E. coli BL21(DE3), HisTrap and Superdex 200, iron supplemented; partly Cys-Tyr crosslinked
As to B1, in data set [1], the Km was 1230 ± 150 µM and the kcat came to 29.36 ± 1.52 s⁻¹.

B2: Japanese flounder CSD (Paralichthys olivaceus) (protein)
chain: MNEPLLDNSEGQLFLTEAFKVIVEEVLCKGTDVKEKVCEWREPEELAALLDLELRENGEPQHQLLQRIRDVAKYSVKTSHPRFFNQQFAGVDYHSLAGRFLTESLNTNLFTYEVAPVFVLMETEVLRGLRQLVGWTEGDGIFCPGGSTSNMYAMNLARYRLFPEVKTQGLWGLPRLTVFTSQESHYSVKKGAGFLGLGTDNVILVKVDDGGRMIPSDLDEKITLTKSQGAVPFLVSCTAGTTVQGAFDPLDHIADVCEKHKLWLHVDAAWGGSVLFSKQHRHLMKGVDRANSVAWNPHKMLVAGLQCSALLLKDTTNLLKQCHCASATYLFQQDKFYDVNLDIGDKSLQCSRKVDCLKLWLMWKAVGSNGLAERVDKAFFHVRYLVEQMKKREGFHLLGQPEFVNVCFWYIPPSLRGKEGDSDYQDRLAKVAPVIKERMVKQGTMMVGYQPLANRVNFFRVIIFSPLISQRDIDFFLDEIERLGNDL
notes: full-length ORF (487 aa printed, ORF 1461 bp), N-terminal 6xHis tag, pET-28a, E. coli BL21(DE3), HisTrap and Superdex 200
On to B2, for which, in data set [2], the Km stood at 3450 ± 380 µM and the turnover number (kcat) amounted to 1.52 ± 0.13 s⁻¹.

B3: Japanese flounder CSD (Paralichthys olivaceus; F110Y/N108S) (protein)
chain: B2 chain with N108S, F110Y
notes: as for B2
Take B3: in data set [2], the Km stood at 1830 ± 170 µM and the catalytic constant (kcat) was 6.26 ± 0.20 s⁻¹.

B4: rainbow trout CSD (Oncorhynchus mykiss) (protein)
chain: MSHLPRFWNLGWSSFLDWWSNQSVVSEQGPSPLYGQQEMNEPLLDNSEGQLFLTEAFKVIVEEVLCKGTDVKEKVCEWREPEELAALLDLELRENGEPQHQLLQRIRDVAKYSVKTNHPRFFNQLFAGVDYHALTGRFLTEALNTSQYTYEVAPVFVLMEDEVLSKLRSLVGWAEGDGIFCPGGTMSNMYAMNVARYRAFPEVKLKGMWSLPRLAVFTSQQSHYSVMKAAAFQGIGTENVFKVKVDDRGCMIPEDLGETIELAKSQGAVPFFVHATSGTTVQGAFDPLEPIADICDRQGLWMHVDAAWGGSVLFSKEHKHLMRGVERADSVTWNPHKMMLTGLQCSAILLKDTTHLLKHCHSADAKYLFQQDKFYDTSLDTGDKSIQCGRKVDCLKLWLMWKAVGSKGLEERVDRAFTHTRYLVEEMKRREGFELIGKPLFVNVCFWFIPPSLRGKENSPDYNDRLSKVAPVIKERMMKQGTMMLGYQPQGGRVNFFRMIVISPQLSHQDMTFCLNEIERLGSDL
notes: full-length ORF (525 aa, ORF 1575 bp), N-terminal 6xHis tag, pET-28a, E. coli BL21(DE3), HisTrap and Superdex 200
As to B4, in data set [3], the Michaelis-Menten constant (Km) came out at 2300 ± 240 µM and the catalytic constant (kcat) was 4.72 ± 0.36 s⁻¹.

B5: rainbow trout CSD (Oncorhynchus mykiss; S146N/Y148F) (protein)
chain: B4 chain with S146N, Y148F
notes: as for B4
As to B5, in data set [3], the Michaelis-Menten constant (Km) was 2730 ± 270 µM and the catalytic constant (kcat) was 1.86 ± 0.07 s⁻¹.

B6: rainbow trout CDO (Oncorhynchus mykiss) (protein)
chain: MDQTELLKPETLDDLIKVLHKIFESDNINVEEVQNIMEAYDSNPQEWMKFAKFDQFRYTRNLVDEGNGKFNLMILCWGEGHGSSIHDHTDSHCFMKLLQGQLKETLFEWPDKKTCNMVQKSQRILQTNQCAYINDSFGLHRVENASHTECSASLHLYSPPFKTCQTFDQRTGHKNTVKMTFWSKFGERTPFETTVSQENN
notes: full-length ORF (200 aa printed, ORF 600 bp), N-terminal 6xHis tag, pET-28a, E. coli BL21(DE3), HisTrap and Superdex 200, iron supplemented; partly Cys-Tyr crosslinked
For B6, in data set [4], the Km stood at 790 ± 90 µM and the kcat was determined as 16.72 ± 0.67 s⁻¹.

Values taken from paper PMC4754659, “Differential regulation of taurine biosynthesis in rainbow trout and Japanese flounder” (Scientific Reports, 2016).
